Each block holds one binder with its values, some of them ahead of it.
Columns and labels:
[1] = biological target: T1, FcγRIIIa extracellular domain with C-terminal His tag (human, UniProt P08637 17-208); test: SPR (Biacore); ratio of He/Con_3a (FcγRIIIa) to He/Con_2b (FcγRIIb)
T1 construct: extracellular domain; also called FcgRIIIa; 3a; not shown: His tag at the C terminus
Protocol: (§1) The heterodimerized antibodies He Abs in which one of the H chains was introduced with an alteration were assayed for their binding activities to each activating FcγR and inhibitory FcγR according to the method described in Example 4. […] The activating FcγRs in FIGS. 26, 27, 28, and 29 are FcγRIa, FcγRIIa (R), FcγRIIa (H), and FcγRIIIa, respectively.
(§2) Analysis of interaction between objective antibody and the FcγR was carried out using Biacore T100 (GE Healthcare). HBS-EP+ (GE Healthcare) was used as the running buffer, and the measurement temperature was set to 25° C. Chips produced by immobilizing the antigen peptide by the amine coupling method to a Series S Sencor Chip CM5 (GE Healthcare), or alternatively, chips produced by allowing preliminarily biotinylated antigen peptides to interact with and immobilize onto a Series S Sensor Chip SA (certified) (GE Healthcare) were used. Antibodies of interest were captured onto an antigen peptide-immobilized chip, and allowed to interact to each FcγR diluted with running buffer. To regenerate and repeatedly use the chip, the antibodies captured on the chip were washed off by reacting 10 mM glycine-HCl, pH 1.5.

[2] = biological target: T1, FcγRIIIa extracellular domain with …; test: SPR (Biacore), antibody captured, FcγR as analyte; He Ab binding / GpH7-A5/GpH7-B3/GpL16-k0 binding x 100
Protocol: as §1, §2

[3] = biological target: T2, FcγRIIb, extracellular domain with C-terminal His tag (human, UniProt P31994 43-217); test: Biacore SPR; binding relative to GpH7-A5/GpH7-B3/GpL16-k0 (=100)
T2 construct: extracellular domain; soluble receptor used as Biacore analyte; also called 2b; FcgRIIb
T2 sequence (looked up): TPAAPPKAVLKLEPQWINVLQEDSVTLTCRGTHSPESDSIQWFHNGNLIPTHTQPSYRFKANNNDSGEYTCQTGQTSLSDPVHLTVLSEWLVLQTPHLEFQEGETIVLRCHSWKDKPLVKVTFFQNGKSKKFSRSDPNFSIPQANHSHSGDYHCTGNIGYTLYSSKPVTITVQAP
Protocol: as §1, §2

[4] = biological target: T3, FcγRIIa R (FcγRIIa, allotype R, Arg at position 131), extracellular domain with C-terminal His tag (human, UniProt P12318 34-217); test: as above
T3 construct: extracellular domain; soluble receptor used as Biacore analyte; also called 2aR; FcgRIIa R
T3 sequence (looked up): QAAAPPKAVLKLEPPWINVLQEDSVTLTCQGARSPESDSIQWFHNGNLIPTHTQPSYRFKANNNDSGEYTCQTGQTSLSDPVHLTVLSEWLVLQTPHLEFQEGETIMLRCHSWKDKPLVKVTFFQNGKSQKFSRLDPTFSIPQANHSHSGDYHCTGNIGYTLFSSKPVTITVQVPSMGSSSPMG
Protocol: as §1, §2

FcγRIa = biological target: T4, FcγRIa (human, UniProt P12314 16-292); test: SPR (Biacore), antibody captured on antigen peptide, FcγR as analyte; relative to GpH7-A5/GpH7-B3/GpL16-k0 = 100
T4 construct: extracellular domain; Soluble extracellular domain with C-terminal His tag, used as analyte in Biacore; also called FcgRI; 1a; not shown: His tag attached to the C terminus

FcγRIIb = biological target: T5, FcγRIIb (human, UniProt P31994 43-217); test: as above
T5 construct: extracellular domain; Soluble extracellular domain with C-terminal His tag, used as analyte in Biacore; also called FcgRIIb; 2b; not shown: His tag attached to the C terminus
T5 sequence (looked up): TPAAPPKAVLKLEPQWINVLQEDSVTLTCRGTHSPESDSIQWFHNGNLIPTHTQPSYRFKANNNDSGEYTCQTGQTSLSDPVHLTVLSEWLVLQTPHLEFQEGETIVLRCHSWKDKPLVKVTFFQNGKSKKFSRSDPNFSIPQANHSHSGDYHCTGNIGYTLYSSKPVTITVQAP

T1 sequence (P08637 17-208): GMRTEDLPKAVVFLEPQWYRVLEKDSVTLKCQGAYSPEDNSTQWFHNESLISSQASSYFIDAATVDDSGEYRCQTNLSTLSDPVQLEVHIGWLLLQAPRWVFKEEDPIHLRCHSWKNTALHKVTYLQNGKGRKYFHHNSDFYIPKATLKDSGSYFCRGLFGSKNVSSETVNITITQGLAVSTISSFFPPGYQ
T4 sequence (P12314 16-292): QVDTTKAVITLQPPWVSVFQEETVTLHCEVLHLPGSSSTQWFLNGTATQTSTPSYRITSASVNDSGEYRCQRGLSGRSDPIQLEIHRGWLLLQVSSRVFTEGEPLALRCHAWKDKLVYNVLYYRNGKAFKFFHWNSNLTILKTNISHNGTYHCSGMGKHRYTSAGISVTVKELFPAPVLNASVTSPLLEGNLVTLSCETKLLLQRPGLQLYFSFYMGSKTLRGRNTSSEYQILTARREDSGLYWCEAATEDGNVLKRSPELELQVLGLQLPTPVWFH

He_3a/2b (IIIa/IIb) [1]: 2.15 ratio
He/Con_3a (IIIa binding) [2]: 19.3 relative, control = 100
B1: GpH7-A5/GpH7-B3 variant A327_12R/GpL16-k0 (antibody, human IgG1, kappa)
heavy 1: not shown
heavy 2: not shown
light: DIVMTQSPLSLPVTPGEPASISCQASESLVHSNRNTYLHWYLQKPGQSPQLLIYKVSNRFSGVPDRFSGSGSGTDFTLKISRVEAEDVGVYYCSQNTHVPPTFGQGTKVEIERTVAAPSVFIFPPSDEQLKSGTASVVCLLNNFYPREAKVQWKVDNALQSGNSQESVTEQDSKDSTYSLSSTLTLSKADYEKHKVYACEVTHQGLSSPVTKSFNRGEC
notes: position is EU numbering; also called He Ab

He/Con_2b (IIb binding) [3]: 1 % of control
B2: heterodimerized antibody GpH7-A5/GpH7-B3 variant V266_11K/GpL16-k0 (antibody, human IgG1, kappa)
heavy 1: not shown
heavy 2: not shown
light: DIVMTQSPLSLPVTPGEPASISCQASESLVHSNRNTYLHWYLQKPGQSPQLLIYKVSNRFSGVPDRFSGSGSGTDFTLKISRVEAEDVGVYYCSQNTHVPPTFGQGTKVEIERTVAAPSVFIFPPSDEQLKSGTASVVCLLNNFYPREAKVQWKVDNALQSGNSQESVTEQDSKDSTYSLSSTLTLSKADYEKHKVYACEVTHQGLSSPVTKSFNRGEC
notes: He Ab: anti-glypican-3 IgG1, alteration in one H chain only; also called He Ab

He/Con_2b (IIb binding) [3]: 0.4 % of control
B3: heterodimerized antibody GpH7-A5/GpH7-B3 variant V266_05P/GpL16-k0 (antibody, human IgG1, kappa)
heavy 1: not shown
heavy 2: not shown
light: DIVMTQSPLSLPVTPGEPASISCQASESLVHSNRNTYLHWYLQKPGQSPQLLIYKVSNRFSGVPDRFSGSGSGTDFTLKISRVEAEDVGVYYCSQNTHVPPTFGQGTKVEIERTVAAPSVFIFPPSDEQLKSGTASVVCLLNNFYPREAKVQWKVDNALQSGNSQESVTEQDSKDSTYSLSSTLTLSKADYEKHKVYACEVTHQGLSSPVTKSFNRGEC
notes: as for B2

He/Con_2b (IIb binding) [3]: 12.2 % of control
B4: heterodimerized antibody GpH7-A5/GpH7-B3 variant S267_11K/GpL16-k0 (antibody, human IgG1, kappa)
heavy 1: not shown
heavy 2: not shown
light: DIVMTQSPLSLPVTPGEPASISCQASESLVHSNRNTYLHWYLQKPGQSPQLLIYKVSNRFSGVPDRFSGSGSGTDFTLKISRVEAEDVGVYYCSQNTHVPPTFGQGTKVEIERTVAAPSVFIFPPSDEQLKSGTASVVCLLNNFYPREAKVQWKVDNALQSGNSQESVTEQDSKDSTYSLSSTLTLSKADYEKHKVYACEVTHQGLSSPVTKSFNRGEC
notes: as for B2

He/Con_2aR (IIaR binding) [4]: 97.6 % of control
He/Con_2b (IIb binding) [3]: 103 % of control
B5: heterodimerized antibody GpH7-A5/GpH7-B3 variant I332_02A/GpL16-k0 (antibody, human IgG1, kappa)
heavy 1: not shown
heavy 2: not shown
light: DIVMTQSPLSLPVTPGEPASISCQASESLVHSNRNTYLHWYLQKPGQSPQLLIYKVSNRFSGVPDRFSGSGSGTDFTLKISRVEAEDVGVYYCSQNTHVPPTFGQGTKVEIERTVAAPSVFIFPPSDEQLKSGTASVVCLLNNFYPREAKVQWKVDNALQSGNSQESVTEQDSKDSTYSLSSTLTLSKADYEKHKVYACEVTHQGLSSPVTKSFNRGEC
notes: as for B2

He/Con_2aR (IIaR binding) [4]: 89.3 % of control
He/Con_2b (IIb binding) [3]: 105 % of control
B6: heterodimerized antibody GpH7-A5/GpH7-B3 variant L328_19Q/GpL16-k0 (antibody, human IgG1, kappa)
heavy 1: not shown
heavy 2: not shown
light: DIVMTQSPLSLPVTPGEPASISCQASESLVHSNRNTYLHWYLQKPGQSPQLLIYKVSNRFSGVPDRFSGSGSGTDFTLKISRVEAEDVGVYYCSQNTHVPPTFGQGTKVEIERTVAAPSVFIFPPSDEQLKSGTASVVCLLNNFYPREAKVQWKVDNALQSGNSQESVTEQDSKDSTYSLSSTLTLSKADYEKHKVYACEVTHQGLSSPVTKSFNRGEC
notes: as for B2

He/Con_1a (FcγRIa): 85.3 % of control
He/Con_2b (FcγRIIb): 102 % of control
B7: GpH7-A5/GpH7-B3 variant S239_05P/GpL16-k0 (antibody, human IgG1, kappa)
heavy 1: not shown
heavy 2: not shown
light: DIVMTQSPLSLPVTPGEPASISCQASESLVHSNRNTYLHWYLQKPGQSPQLLIYKVSNRFSGVPDRFSGSGSGTDFTLKISRVEAEDVGVYYCSQNTHVPPTFGQGTKVEIERTVAAPSVFIFPPSDEQLKSGTASVVCLLNNFYPREAKVQWKVDNALQSGNSQESVTEQDSKDSTYSLSSTLTLSKADYEKHKVYACEVTHQGLSSPVTKSFNRGEC
notes: Heterodimerized IgG1; mutation in the GpH7-B3 H chain only; also called He Ab

— US20180155451A1 (published 2018)
